Series [1] deals with the molecule itself. Kind of series: SEC.
The series “non-reducing SDS/PAGE” concerns the molecule itself. Kind of series: non-reducing SDS/PAGE.
Series [2] concerns the molecule itself. Kind of series: SEC. This is another data set of the same source. In general terms: Size exclusion chromatography separates by hydrodynamic size, large species first.

Numbering of substitutions follows the chain as printed.

B1: WT Prx2, oxidized (disulfide) (enzyme, human, UniProt P32119 1-198, looked up)
chain: MASGNARIGKPAPDFKATAVVDGAFKEVKLSDYKGKYVVLFFYPLDFTFVCPTEIIAFSNRAEDFRKLGCEVLGVSVDSQFTHLAWINTPRKEGGLGPLNIPLLADVTRRLSEDYGVLKTDEGIAYRGLFIIDGKGVLRQITVNDLPVGRSVDEALRLVQAFQYTDEHGEVCPAGWKPGSDTIKPNVDDSKEYFSKHN
modifications: intermolecular disulfides between Cys-Sp and Cys-Sr of the opposing subunit (two per dimer)
With B1, the figures for the “stoichiometry N” value in the series “SEC [1]” and in “non-reducing SDS/PAGE” were 10 and 2, respectively.

B2: CT* Prx2, oxidized (as purified) (enzyme, human, UniProt P32119 1-198, looked up)
chain: B1 chain with G175N, K177T, G179D, D181P
modifications: oxidized form (inter-subunit disulfides)
With B2, the “stoichiometry N” value in the series “non-reducing SDS/PAGE” worked out at 2.

B3: WT Prx3, hyperoxidized dimer (enzyme, human, UniProt P30048 62-256, looked up)
chain: APAVTQHAPYFKGTAVVNGEFKDLSLDDFKGKYLVLFFYPLDFTFVCPTEIVAFSDKANEFHDVNCEVVAVSVDSHFSHLAWINTPRKNGGLGHMNIALLSDLTKQISRDYGVLLEGSGLALRGLFIIDPNGVIKHLSVNDLPVGRSVEETLRLVKAFQYVETHGEVCPANWTPDSPTIKPSPAASKEYFQKVNQ
modifications: per dimer: one Cys-Sp as sulfinic acid (SpO2-), the other active site a Cys-Sp to Cys-Sr disulfide
For the protein B3, in the series “SEC [1]”, the “stoichiometry N” value is 2.

B4: WT Prx3, reduced (enzyme, human, UniProt P30048 62-256, looked up)
chain: B3 chain
Consider B4, for which the “stoichiometry N” value in the series “SEC [2]” worked out at 2.

B5: WT Prx3, oxidized (disulfide) (enzyme, human, UniProt P30048 62-256, looked up)
chain: B3 chain
modifications: intermolecular disulfides between Cys-Sp and Cys-Sr of the opposing subunit (two per dimer)
B5: in “non-reducing SDS/PAGE”, the “stoichiometry N” value amounted to 2.

B6: CT* Prx3, oxidized (as purified) (enzyme, human, UniProt P30048 62-256, looked up)
chain: B3 chain with N171G, T173K, D175G, P177D
modifications: oxidized form (inter-subunit disulfides)
As to B6, the “stoichiometry N” value in the series “non-reducing SDS/PAGE” is 2.

By stoichiometry N is commonly meant a count of units in the complex or per binding partner.

These data come from PMC4859152 (The Biochemical journal, 2015).
